In US20180327512A1:

Tests used:
[1] = biological target: human polyclonal IgG (Gammanorm) (human); assay: SPR (Biacore), remaining IgG binding capacity after 96-100 cycles in 0.5 M NaOH, ratio to Zvar1 reference
[2] = biological target: human polyclonal IgG (Gammanorm) (human); assay: SPR (Biacore), ligand on CM5 chip, 1 mg/ml human polyclonal IgG; remaining IgG binding signal after 96-100 10-min cycles in 0.5 M NaOH
[3] = biological target: human polyclonal IgG (Gammanorm) (human); assay: column Qb10 after six 4 h cycles in 0.5 M NaOH, ligand on agarose beads (ligand content 9.7 mg/ml)
[4] = biological target: human polyclonal IgG (Gammanorm) (human); assay: column dynamic binding capacity at 10% breakthrough, ligand on agarose beads (ligand content 9.7 mg/ml), Gammanorm 2 mg/ml, 6 min residence time
[5] = biological target: human polyclonal IgG (Gammanorm) (human); assay: column Qb10 after six 4 h cycles in 0.5 M NaOH relative to initial, ligand on agarose beads (ligand content 9.7 mg/ml)
[6] = biological target: human polyclonal IgG (Gammanorm) (human); assay: column Qb10 retention after six 4 h cycles in 0.5 M NaOH, ratio to Zvar4 reference
[7] = biological target: human polyclonal IgG (Gammanorm) (human); assay: column Qb10 after six 4 h cycles in 0.5 M NaOH, ligand on agarose beads (ligand content 10.8 mg/ml)
[8] = biological target: human polyclonal IgG (Gammanorm) (human); assay: column dynamic binding capacity at 10% breakthrough, ligand on agarose beads (ligand content 10.8 mg/ml), Gammanorm 2 mg/ml, 6 min residence time
[9] = biological target: human polyclonal IgG (Gammanorm) (human); assay: column Qb10 after six 4 h cycles in 0.5 M NaOH relative to initial, ligand on agarose beads (ligand content 10.8 mg/ml)

“Zvar(H18K, S33K, D37E, A42R, N43A, L44I, K50R, L51Y)1 (designed binder)” gave a Capacity relative to reference [1] of 1.04 and a Capacity after 96-100 cycles [2] of 48%.
“Zvar(N11K, H18K, S33K, D37E, A42R, N43A, L44I, K50R, L51Y)4 (designed binder)” showed a Remaining IgG capacity after six 4 h cycles [3] of 52 mg/mL, an Initial IgG capacity Qb10 [4] of 56.3 mg/mL and a Remaining IgG capacity after six 4 h cycles (%) [5] of 92%. The Capacity retention relative to ref. after 4 h cycles [6] was 1.42.
Work on “Zvar(Q9A, N11K, H18K, D37E, A42R)4 (designed binder)” yielded a Remaining IgG capacity after six 4 h cycles [7] of 52.5 mg/mL, an Initial IgG capacity Qb10 [8] of 56.9 mg/mL and a Capacity retention relative to ref. after 4 h cycles [6] of 1.21. It also gave a Remaining IgG capacity after six 4 h cycles (%) [9] of 92%.
